Measurements from publication PMC5857972 (2018).

T1: extracellular portion of the human FcγIIA (human, UniProt P12318-1 34-215)
T1 chain: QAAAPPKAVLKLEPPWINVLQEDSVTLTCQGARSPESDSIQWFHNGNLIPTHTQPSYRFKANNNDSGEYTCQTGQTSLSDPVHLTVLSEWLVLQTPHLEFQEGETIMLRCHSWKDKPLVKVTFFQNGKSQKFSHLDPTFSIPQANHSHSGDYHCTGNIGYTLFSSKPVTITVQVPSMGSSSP

B1: Pertuzumab Vκ1|VH3 whole IgG1 (original pairing) (antibody, V domains shown)
VH: EVQLVESGGGLVQPGGSLRLSCAASGFTFTDYTMDWVRQAPGKGLEWVADVNPNSGGSIYNQRFKGRFTLSVDRSKNTLYLQMNSLRAEDTAVYYCARNLGPSFYFDYWGQGTLVTVSS
VL: DIQMTQSPSSLSASVGDRVTITCKASQDVSIGVAWYQQKPGKAPKLLIYSASYRYTGVPSRFSGSGSGTDFTLTISSLQPEDFATYYCQQYYIYPYTFGQGTKVEIK

Target: T1, extracellular portion of the human …
Test: BLI

Kd	Molecule
9.31 nM	B1

Target: T1, extracellular portion of the human …
Test: BLI
Remark: another data set of the same source

koff	Molecule
0.00154 s⁻¹	B1

Each molecule was assayed against extracellular portion of the human FcγIIA (human) (UniProt P12318) (assay: BLI).

Kd	Molecule
83 nM	Pertuzumab Vκ6|VH5 whole IgG1 variant (from UniProt P01857)
47.9 nM	Trastuzumab Vκ6|VH1 whole IgG1 variant (from UniProt P01857)
23.7 nM	Pertuzumab Vκ3|VH3 whole IgG1 variant (from UniProt P01857)
4.99 nM	Pertuzumab Vκ2|VH2 whole IgG1 variant (from UniProt P01857)
39.7 nM	Trastuzumab Vκ6|VH6 whole IgG1 variant (from UniProt P01857)
12.5 nM	Trastuzumab Vκ6|VH5 whole IgG1 variant (from UniProt P01857)
11.5 nM	Pertuzumab Vκ3|VH1 whole IgG1 variant (from UniProt P01857)
3.33 nM	Pertuzumab Vκ4|VH2 whole IgG1 variant (from UniProt P01857)
116 nM	Pertuzumab Vκ4|VH1 whole IgG1 variant (from UniProt P01857)
72.7 nM	Pertuzumab Vκ6|VH7 whole IgG1 variant (from UniProt P01857)
3.94 nM	Pertuzumab Vκ2|VH6 whole IgG1 variant (from UniProt P01857)
14.7 nM	Trastuzumab Vκ2|VH6 whole IgG1 variant (from UniProt P01857)
9.3 nM	Trastuzumab Vκ3|VH1 whole IgG1 variant (from UniProt P01857)
4.74 nM	Pertuzumab Vκ1|VH2 whole IgG1 variant (from UniProt P01857)
15.7 nM	Pertuzumab Vκ5|VH3 whole IgG1 variant (from UniProt P01857)
30 nM	Trastuzumab Vκ6|VH4 whole IgG1 variant (from UniProt P01857)

These molecules were tested against Pertuzumab Vκ1|VH3 whole IgG1 (original pairing) (assay: BLI; Octet QKe; antibody captured by its Fc on Anti-Human Fc Capture (AHC) biosensor, Her2 in solution; KD calculated from Kon and Koff by the Octet software; triplicates).

Kd	Molecule
0.87 nM	Her2 (from UniProt P04626 23-1255) (natural protein)
